Results published in PMC3709441 (The Biochemical journal, 2009).

B1: hsp90 C-12 control phage, displayed peptide GDDDTSRMEEVD (the 12 residues located at the C-terminus of hsp90) (peptide)
peptide: GDDDTSRMEEVD
B2: T7 phage #7 (VD phage with a -4 methionine), displayed peptide NAHLRLEMNDVD (peptide)
peptide: NAHLRLEMNDVD
B3: LFG phage #2, displayed peptide … (peptide)
peptide: KHTVADDELLFG
B4: LFG phage #1, displayed peptide … (peptide)
peptide: RLLSADDDVLFG
B5: T7 phage #1 (VD phage #1), displayed peptide … (peptide)
peptide: RFQQMNQSWDVD

Assays:
Assay in all cases: ELISA
RnPP5 TPR E29A (rat) = target: RnPP5 TPR E29A (rat)
RnPP5 TPR R113A (rat) = target: RnPP5 TPR R113A (rat)
RnPP5 TPR E56A (rat) = target: RnPP5 TPR E56A (rat)
RnPP5 TPR E76A (rat) = target: RnPP5 TPR E76A (rat)
RnPP5 TPR R117A (rat) = target: RnPP5 TPR R117A (rat)
RnPP5 TPR Y80A (rat) = target: RnPP5 TPR Y80A (rat)
[1] = target: HsHop TPR2B (amino acids 353-477) (human, UniProt P31948 353-477)
[2] = target: HsHop TPR2A (amino acids 223-352) (human, UniProt P31948 223-352)
[3] = target: T1, HsPP5 TPR (human protein phosphatase 5 TPR domain, amino acids 1-181) (human, UniProt P53041 1-181)
T1 sequence (looked up): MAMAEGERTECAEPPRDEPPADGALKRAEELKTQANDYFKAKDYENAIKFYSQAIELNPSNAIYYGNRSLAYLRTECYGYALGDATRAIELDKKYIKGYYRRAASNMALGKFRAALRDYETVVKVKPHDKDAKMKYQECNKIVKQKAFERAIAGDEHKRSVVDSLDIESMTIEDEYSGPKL

[4] = target: HsHop TPR1 (amino acids 1-118) (human, UniProt P31948 1-118)
RnPP5 TPR R101A (rat) = target: RnPP5 TPR R101A (rat)
RnPP5 TPR R74A (rat) = target: RnPP5 TPR R74A (rat)
RnPP5 TPR K32A (rat) = target: RnPP5 TPR K32A (rat)
RnPP5 TPR I63A (rat) = target: RnPP5 TPR I63A (rat)
RnPP5 TPR K40A (rat) = target: RnPP5 TPR K40A (rat)
[5] = target: T2, RnPP5 TPR wild type (rat protein phosphatase 5 TPR domain) (rat)
T2 sequence (P53042 whole entry, looked up): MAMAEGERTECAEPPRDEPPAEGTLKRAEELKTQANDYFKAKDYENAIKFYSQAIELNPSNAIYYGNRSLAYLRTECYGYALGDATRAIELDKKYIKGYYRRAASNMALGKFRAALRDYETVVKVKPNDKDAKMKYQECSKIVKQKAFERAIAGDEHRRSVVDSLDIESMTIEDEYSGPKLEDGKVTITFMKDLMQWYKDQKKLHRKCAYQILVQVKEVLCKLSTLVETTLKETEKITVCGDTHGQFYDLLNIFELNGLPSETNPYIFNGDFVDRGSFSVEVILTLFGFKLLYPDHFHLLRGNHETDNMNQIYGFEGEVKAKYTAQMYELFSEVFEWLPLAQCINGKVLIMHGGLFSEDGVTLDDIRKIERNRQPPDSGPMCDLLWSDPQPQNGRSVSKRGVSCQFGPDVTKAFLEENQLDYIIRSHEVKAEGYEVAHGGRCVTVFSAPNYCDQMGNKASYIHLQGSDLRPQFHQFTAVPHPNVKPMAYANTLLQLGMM

Chain of HsHop TPR1 (amino acids 1-118) (P31948 1-118): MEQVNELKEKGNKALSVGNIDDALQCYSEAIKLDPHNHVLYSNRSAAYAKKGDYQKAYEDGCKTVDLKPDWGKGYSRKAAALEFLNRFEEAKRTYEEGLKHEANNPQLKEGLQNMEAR
Chain of HsHop TPR2B (amino acids 353-477) (P31948 353-477): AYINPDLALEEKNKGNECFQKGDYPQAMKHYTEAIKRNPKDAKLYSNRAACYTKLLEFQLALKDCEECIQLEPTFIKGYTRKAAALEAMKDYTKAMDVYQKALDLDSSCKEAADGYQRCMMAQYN
Chain of HsHop TPR2A (amino acids 223-352) (P31948 223-352): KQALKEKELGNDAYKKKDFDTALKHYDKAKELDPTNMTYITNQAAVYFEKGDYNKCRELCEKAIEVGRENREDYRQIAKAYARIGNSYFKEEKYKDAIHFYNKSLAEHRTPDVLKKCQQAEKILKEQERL

| Molecule | A405 (ELISA) (absorbance at 405 nm) (RnPP5 TPR E29A (rat)) | A405 (ELISA) (absorbance at 405 nm) (RnPP5 TPR R113A (rat)) | A405 (ELISA) (absorbance at 405 nm) (RnPP5 TPR E56A (rat)) | A405 (ELISA) (absorbance at 405 nm) (RnPP5 TPR R117A (rat)) | A405 (ELISA) (absorbance at 405 nm) (RnPP5 TPR Y80A (rat)) | A405 (ELISA) (absorbance at 405 nm) (RnPP5 TPR R101A (rat)) | A405 (ELISA) (absorbance at 405 nm) (RnPP5 TPR R74A (rat)) | also measured |
| --- | --- | --- | --- | --- | --- | --- | --- | --- |
| hsp90 C-12 control phage, displayed peptide … (the 12 residues located at the C-terminus of hsp90) | 1.06 | 0.72 | 1.08 | 1.06 | 1.09 |  |  | A405 (ELISA) (absorbance at 405 nm) (RnPP5 TPR E76A (rat)): 1.12 |
| B1 |  |  |  |  |  |  |  | A405 (ELISA) [1]: 0.24 absorbance at 405 nm |
| B2 |  |  |  |  |  |  |  | A405 (ELISA) [2]: 0.04 absorbance at 405 nm; A405 (ELISA) [3]: 0.56 absorbance at 405 nm; A405 (ELISA) [4]: 0.32 absorbance at 405 nm |
| B3 | 0.75 | 0.74 |  | 0.78 |  | 0.54 | 0.75 |  |
| B4 |  | 0.66 | 0.78 | 0.8 |  | 0.53 |  | A405 (ELISA) (absorbance at 405 nm) (RnPP5 TPR K32A (rat)): 0.74 |
| B5 |  | 0.84 |  | 1 | 1.08 |  | 0.75 | A405 (ELISA) (absorbance at 405 nm) (RnPP5 TPR I63A (rat)): 0.84; A405 (ELISA) (absorbance at 405 nm) (RnPP5 TPR K40A (rat)): 1.01; A405 (ELISA) (absorbance at 405 nm) [5]: 1.14 |
